For series [1], the system named is Peptide 11: DEAIYATVAGGKKK (version of peptide 5 used for the kinetic experiments).
Series [2] has as its system Peptide 10: EDPIYVTLEGGKKK (version of peptide 2 used for the kinetic experiments).

This is an account of results in patent publication US20190302117.

Broadly, the kcat is the maximal rate divided by the concentration of active sites. One may read the kcat/Km as the turnover number divided by the Michaelis constant. For the substance SRC as GST fusion protein, in series [1], the catalytic constant (kcat) is > 2 s⁻¹ and the kcat/Km was 9500 M⁻¹ s⁻¹. Further, in series [2], the kcat was > 40 s⁻¹ and the kcat/Km stood at 17500 M⁻¹ s⁻¹.
What is called Km is the concentration of substrate that gives half-maximal velocity. Consider SYK as GST fusion protein, for which, in series [1], the Km is > 200 µM, the kcat is > 0.1 s⁻¹ and the kcat/Km amounted to 560 M⁻¹ s⁻¹. Besides, in series [2], the 2/5 kcat/Km ratio (peptide 2 against peptide 5) amounted to 1.8, the Km is > 200 µM, the catalytic constant (kcat) is > 2e-07 s⁻¹ and the kcat/Km came to 1080 M⁻¹ s⁻¹.
